The text below walks through data of article PMC2860068 (DNA repair, 2010).

Assay [1] concerns the target T1, hMSH6 (recombinant, subunit of purified hMutSα) (human, UniProt P52701 1-1360). The assay can be described thus: pull-down.
Assay [2] addresses hMSH3 (recombinant, subunit of purified hMutSβ) (human, UniProt P20585 1-1137). The assay can be described thus: far-Western.
The target of assay [3] is T1, hMSH6 (recombinant, subunit of purified …). The assay can be described thus: far-Western.

T1 sequence (P52701 whole entry): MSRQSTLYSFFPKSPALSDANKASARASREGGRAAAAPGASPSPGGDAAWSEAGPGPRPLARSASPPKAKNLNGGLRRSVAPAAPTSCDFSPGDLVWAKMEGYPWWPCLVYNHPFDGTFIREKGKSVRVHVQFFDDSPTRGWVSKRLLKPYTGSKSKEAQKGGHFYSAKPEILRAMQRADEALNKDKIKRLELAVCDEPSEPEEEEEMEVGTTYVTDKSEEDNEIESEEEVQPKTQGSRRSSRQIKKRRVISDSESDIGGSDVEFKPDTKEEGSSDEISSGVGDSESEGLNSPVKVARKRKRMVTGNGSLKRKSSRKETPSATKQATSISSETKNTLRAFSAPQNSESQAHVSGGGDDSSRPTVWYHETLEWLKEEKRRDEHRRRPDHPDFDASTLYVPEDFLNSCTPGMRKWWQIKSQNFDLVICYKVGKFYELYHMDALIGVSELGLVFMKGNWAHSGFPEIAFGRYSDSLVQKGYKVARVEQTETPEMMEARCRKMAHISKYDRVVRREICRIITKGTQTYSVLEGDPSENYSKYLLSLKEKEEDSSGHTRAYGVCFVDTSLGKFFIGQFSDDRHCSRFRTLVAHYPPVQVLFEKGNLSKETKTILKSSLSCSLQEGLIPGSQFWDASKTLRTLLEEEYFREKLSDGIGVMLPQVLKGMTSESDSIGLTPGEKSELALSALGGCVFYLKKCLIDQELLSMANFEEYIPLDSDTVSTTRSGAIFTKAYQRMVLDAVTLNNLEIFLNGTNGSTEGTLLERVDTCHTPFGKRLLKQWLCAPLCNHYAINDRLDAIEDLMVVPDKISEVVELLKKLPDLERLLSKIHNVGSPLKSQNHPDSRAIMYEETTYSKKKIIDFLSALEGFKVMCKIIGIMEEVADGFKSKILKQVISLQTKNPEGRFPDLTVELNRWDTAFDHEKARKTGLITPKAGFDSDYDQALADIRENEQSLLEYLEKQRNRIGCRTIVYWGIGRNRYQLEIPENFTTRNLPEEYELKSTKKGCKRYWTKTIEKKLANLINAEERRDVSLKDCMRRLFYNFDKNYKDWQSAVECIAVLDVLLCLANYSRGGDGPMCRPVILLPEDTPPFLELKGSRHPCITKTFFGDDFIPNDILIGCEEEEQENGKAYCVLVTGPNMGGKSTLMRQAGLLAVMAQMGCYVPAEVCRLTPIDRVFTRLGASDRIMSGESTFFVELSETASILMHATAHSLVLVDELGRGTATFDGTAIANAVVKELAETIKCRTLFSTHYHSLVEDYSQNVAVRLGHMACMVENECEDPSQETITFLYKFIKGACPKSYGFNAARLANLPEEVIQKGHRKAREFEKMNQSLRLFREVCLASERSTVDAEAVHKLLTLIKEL
Sequence of hMSH3 (recombinant, subunit of purified hMutSβ) (P20585 whole entry): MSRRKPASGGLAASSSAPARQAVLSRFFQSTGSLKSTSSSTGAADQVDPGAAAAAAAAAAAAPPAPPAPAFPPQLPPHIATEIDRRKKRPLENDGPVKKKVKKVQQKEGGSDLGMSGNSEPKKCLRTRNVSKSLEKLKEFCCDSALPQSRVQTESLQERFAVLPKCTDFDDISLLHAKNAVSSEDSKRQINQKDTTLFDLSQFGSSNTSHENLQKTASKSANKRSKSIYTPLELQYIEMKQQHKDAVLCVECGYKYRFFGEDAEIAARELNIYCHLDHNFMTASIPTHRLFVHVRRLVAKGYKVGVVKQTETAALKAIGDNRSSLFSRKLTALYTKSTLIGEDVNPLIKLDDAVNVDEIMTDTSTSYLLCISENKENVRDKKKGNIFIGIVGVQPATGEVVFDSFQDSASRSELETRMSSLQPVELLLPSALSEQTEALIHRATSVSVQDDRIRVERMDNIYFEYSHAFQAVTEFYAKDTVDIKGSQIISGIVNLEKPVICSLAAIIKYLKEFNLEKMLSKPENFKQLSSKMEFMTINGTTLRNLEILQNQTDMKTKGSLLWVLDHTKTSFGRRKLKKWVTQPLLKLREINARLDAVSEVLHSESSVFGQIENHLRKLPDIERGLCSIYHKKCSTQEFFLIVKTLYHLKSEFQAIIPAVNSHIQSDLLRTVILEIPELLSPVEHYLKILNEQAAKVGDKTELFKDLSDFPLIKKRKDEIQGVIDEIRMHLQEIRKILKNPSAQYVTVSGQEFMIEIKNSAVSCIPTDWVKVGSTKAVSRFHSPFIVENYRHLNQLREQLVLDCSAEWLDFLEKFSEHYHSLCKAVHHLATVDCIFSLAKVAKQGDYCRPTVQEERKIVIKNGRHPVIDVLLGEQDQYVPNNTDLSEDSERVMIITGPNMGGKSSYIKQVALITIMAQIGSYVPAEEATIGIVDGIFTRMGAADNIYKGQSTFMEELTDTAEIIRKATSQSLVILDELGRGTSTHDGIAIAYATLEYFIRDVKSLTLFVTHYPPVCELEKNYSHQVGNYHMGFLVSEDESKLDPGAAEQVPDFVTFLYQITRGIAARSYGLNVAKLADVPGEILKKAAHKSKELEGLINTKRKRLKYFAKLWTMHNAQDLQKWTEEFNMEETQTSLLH

B1: GST-hHus1 (natural protein, human, UniProt O60921 1-280, looked up)
chain: MKFRAKIVDGACLNHFTRISNMIAKLAKTCTLRISPDKLNFILCDKLANGGVSMWCELEQENFFNEFQMEGVSAENNEIYLELTSENLSRALKTAQNARALKIKLTNKHFPCLTVSVELLSMSSSSRIVTHDIPIKVIPRKLWKDLQEPVVPDPDVSIYLPVLKTMKSVVEKMKNISNHLVIEANLDGELNLKIETELVCVTTHFKDLGNPPLASESTHEDRNVEHMAEVHIDIRKLLQFLAGQQVNPTKALCNIVNNKMVHFDLLHEDVSLQYFIPALS
For B1, the binding result in assay [1] and in assay [2] was “binds” each time.

B2: GST-hRad9 (natural protein, human, UniProt Q99638 1-391, looked up)
chain: MKCLVTGGNVKVLGKAVHSLSRIGDELYLEPLEDGLSLRTVNSSRSAYACFLFAPLFFQQYQAATPGQDLLRCKILMKSFLSVFRSLAMLEKTVEKCCISLNGRSSRLVVQLHCKFGVRKTHNLSFQDCESLQAVFDPASCPHMLRAPARVLGEAVLPFSPALAEVTLGIGRGRRVILRSYHEEEADSTAKAMVTEMCLGEEDFQQLQAQEGVAITFCLKEFRGLLSFAESANLNLSIHFDAPGRPAIFTIKDSLLDGHFVLATLSDTDSHSQDLGSPERHQPVPQLQAHSTPHPDDFANDDIDSYMIAMETTIGNEGSRVLPSISLSPGPQPPKSPGPHSEEEDEAEPSTVPGTPPPKKFRSLFFGSILAPVRSPQGPSPVLAEDSEGEG
Take B2: the binding result in assay [3] was “binds”.

B3: GST-hRad1 (natural protein, human, UniProt O60671 1-282, looked up)
chain: MPLLTQQIQDEDDQYSLVASLDNVRNLSTILKAIHFREHATCFATKNGIKVTVENAKCVQANAFIQAGIFQEFKVQEESVTFRINLTVLLDCLSIFGSSPMPGTLTALRMCYQGYGYPLMLFLEEGGVVTVCKINTQEPEETLDFDFCSTNVINKIILQSEGLREAFSELDMTSEVLQITMSPDKPYFRLSTFGNAGSSHLDYPKDSDLMEAFHCNQTQVNRYKISLLKPSTKALVLSCKVSIRTDNRGFLSLQYMIRNEDGQICFVEYYCCPDEEVPESES
B3: the binding result in assay [3] was “binds”.
